Results on 15 molecules are retold here after patent US20220119472A1 (ORIONIS BIOSCIENCES, published 2022).

Experiment [1] concerns the target T1, recombinant His6-tagged extracellular domain of human Clec4C (C-type lectin domain family 4, member C) (human, UniProt Q8WTT0 44-213).
T1 construct: Same antigen for immunisation, panning and ELISA; also called His-Clec4C(EC); pMET7-SIgK-His-Clec4C(EC)
T1 sequence: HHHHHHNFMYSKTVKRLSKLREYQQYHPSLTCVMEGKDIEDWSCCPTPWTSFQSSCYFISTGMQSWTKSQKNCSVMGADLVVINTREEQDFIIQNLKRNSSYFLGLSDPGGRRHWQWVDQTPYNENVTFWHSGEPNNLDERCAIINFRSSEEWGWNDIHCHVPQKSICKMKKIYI
The experiment is described as follows: ELISA, TG1 periplasmic extract on coated antigen. The text has this: (§1) In total, 190 colonies from rounds 1 and 2 were randomly selected and analyzed by ELISA for the presence of antigen-specific VHH in their periplasmic extracts (ELISA using crude periplasmic extracts from TG1 cultures including soluble VHH). The antigen used for ELISA screening was the same as the one used for immunization, using uncoated blocked wells as negative control.

The target of experiment [2] is T1, recombinant His6-tagged extracellular …. Description: ELISA, antigen-coated vs uncoated blocked wells.
Source text: as §1
(ELISA stands for enzyme-linked immunosorbent assay.)

B1: 1CL56 (VHH)
VHH: QVQLQESGGGLVQPGGSLTLSCGASGFDFSDYVMYWLRQAPGKGLQWVSSINASGVRTYYVDALKGRFTISRDNAKNTLYLQIDDLKPEDTGLYYCARVGQAPMYFGVDFWGNGTQVTVSS
notes: pMECS VHH-HA-His6; TG1 periplasmic extract
As to B1, the ELISA coated in experiment [1] worked out at 3.89. In experiment [2], the ELISA ratio coated/uncoated was 4.82.

B2: 2CL81 (VHH)
VHH: QVQLQESGGGLVQAGDSLKLSCAASGRTFSTYAMGWFRQAPGKERDVVAAIATNGGTTYYVDSVKGRFTISRDNAQNRVYLQMNSLKPEDTAIYYCAARLSFGSGYYTNKLNYAYWGQGTQVTVSS
notes: as for B1
Take B2: the ELISA coated in experiment [1] amounted to 3.69. Further, the ELISA ratio coated/uncoated in experiment [2] is 8.32.

B3: 2CL56 (VHH)
VHH: QVQLQESGGGSVQAGDSLTLSCIASGRTFSSLAMGWFRQAPGKEREFVAAINWSGDSTYYSDSMKGRLTMSRDNAKNTVFLQMNSLEPEDTAVYVCAADASGYGSAWPDRYDYWGQGTQVTVSS
notes: as for B1
On to B3, for which the ELISA coated in experiment [1] came out at 0.999. For the same molecule, the ELISA ratio coated/uncoated in experiment [2] was determined as 4.72.

B4: 2CL16 (VHH)
VHH: QVQLQESGGGLVQPGGSLRLSCAASGDTFSNYAMGWFRQAPGKAREFVAAISRSAGSTYHVDSVKGRFTISRDNAMNTVYLQMNSLQPEDTAHYYCAARLTFNLIDYYTAETRYTYWGQGTQVTVSS
notes: as for B1
Turning to B4, in experiment [1], the ELISA coated worked out at 2.03. Also, the ELISA ratio coated/uncoated in experiment [2] was 14.1.

B5: 2CL46 (VHH)
VHH: QVQLQESGGGLVQAGGSLRLSCAVSGRTFSSYAMGWFRQARGKEREFVAAVEWSSGSTFYTDSVKGRFAISRDIAKNTVYLQMNSLKPEDTAVYYCAGDHTGKLVFSKTSDYWGQGTQVTVSS
notes: as for B1
Take B5: in experiment [1], the ELISA coated turned out to be 3.3. Further, the ELISA ratio coated/uncoated in experiment [2] worked out at 4.82.

B6: 2CL57 (VHH)
VHH: QVQLQESGGGLVQAGGSLKLSCAASGRTFSSYAMGWFRQAPGKERDFVAVISWRNNTYYADSVKGRFTISRDNAKNTVHLQMNSLKSEDTAVYYCAAAGLGAVVAGMSDYDYWGQGTQVTVSS
notes: as for B1
B6: the ELISA coated in experiment [1] was determined as 0.922. For the same molecule, in experiment [2], the ELISA ratio coated/uncoated was found to be 4.38.

B7: 1CL81 (VHH)
VHH: QVQLQESGGGLVQAGNSLKLSCAASGRNLAYYVMGWFRQAPGREREPVATLTRGGDDTYCADSVKGRFTISSDNAKNTVYLQMNNLKPEDTAIYTCAARLAVLSSNTYCSGLWDYWGQGTQVTVSS
notes: as for B1
Take B7: the ELISA coated in experiment [1] amounted to 1.12. Besides, the ELISA ratio coated/uncoated in experiment [2] came out at 4.72.

B8: 2CL29 (VHH)
VHH: QVQLQESGGGLVQPGDSLRLSCTASERTFTNYAMAWFRQAPGKERDVLATISRSGSSTFYAESVKGRFTISRDNTKNTVYLQMNSLEPEDTAVYYCAARPLVPSEDPDNYNYWGQGTQVTVSS
notes: as for B1
Take B8: in experiment [1], the ELISA coated worked out at 2.24. The ELISA ratio coated/uncoated in experiment [2] was found to be 6.84.

B9: 1CL88 (VHH)
VHH: QVQLQESGGGLVQAGGSLRLSCAASGRIFSNSAMGWFRQVLGKEREFVAAISENSSILYYTASVKGRFTISRDNDKNTVYLQMTSLKAEDTAVYYCAGYGSTTIRTTTRPTKWGQGTQVTVSS
notes: as for B1
Regarding B9, in experiment [1], the ELISA coated amounted to 4. In experiment [2], the ELISA ratio coated/uncoated came to 3.42.

B10: 2CL91 (VHH)
VHH: QVQLQESGGGLVQAGDSLRLSCTASERTFSNYAMGWFRLAPGKERKFVAAISTSGGTTDYVDSVKGRFTISRDNAKNTVYLQMNSLKPEDTAVYYCAARLDFSSTDLYTTAPRYPYWGQGTQVTVSS
notes: as for B1
As for B10, the ELISA coated in experiment [1] was determined as 4. In addition, the ELISA ratio coated/uncoated in experiment [2] was 5.56.

B11: 2CL34 (VHH)
VHH: QVQLQESGGGLVQAGGSLRLSCAASGRTFTNYAMGWFRQAPGKEREFVATISRSGSMPYYADSVKGRFTISRDNAKNMVYLQMNSLKPEDTAVYYCAANVLVTTTRLDQYDSWGQGTQVTVSS
notes: as for B1
For the molecule B11, the ELISA coated in experiment [1] was found to be 2.8. The ELISA ratio coated/uncoated in experiment [2] stood at 3.83.

B12: 2CL40 (VHH)
VHH: QVQLQESGGGLVQTGGSLRVSCAASGRSISNYNMGWFRQPPGKEREIVGSIRWDGDSTYYADSVKGRFTISRDNTKNTVYLQMNSLKSEDTADYYCAATVSSFDESKNPRWYPYWGQGTQVTVSS
notes: as for B1
For B12, in experiment [1], the ELISA coated was 3.11. Besides, the ELISA ratio coated/uncoated in experiment [2] is 13.3.

B13: 2CL66 (VHH)
VHH: QVQLQESGGGLVQAGGSLRLSCAASERTFTNYAMGWFRQGPGKDRAFVAAISRSGSSTSYADSVKGRFTISRDNAENILYLQMNSLKPEDTAVYYCAAAPLVLKTTPGAYNYWGQGTQVTVSS
notes: as for B1
Turning to B13, in experiment [1], the ELISA coated stood at 2.04. The ELISA ratio coated/uncoated in experiment [2] came out at 18.6.

B14: 2CL65 (VHH)
VHH: QVQLQESGGGLVQPGGSLRLSCAASGRIFSINAMGWYRQAPGKQRELVAVISRSGISNYVDSVKGRFTISRDNAKNTVYLQMNSLNPEDTADYYCNADVLLTFNKREDSWGQGTQVTVSS
notes: as for B1
Consider B14, for which the ELISA coated in experiment [1] amounted to 1.72. For the same molecule, in experiment [2], the ELISA ratio coated/uncoated was found to be 9.33.

B15: 2CL15 (VHH)
VHH: QVQLQESGGGLVQPGGSVRLSCAASVFTLNNFIMSWVRQAPGKGLERVSDINMVGITDYSDPVKGRFTISRDNKQNTVYLQGNTLKPEDTAVYFCAAGRPIGLYYPSPRIRDYNDWGQGTQVTVSS
notes: as for B1
For B15, the ELISA coated in experiment [1] is 3.9. Also, in experiment [2], the ELISA ratio coated/uncoated was determined as 12.8.
